For this experiment, the target named is T1, murine IA^d MHC class II heterodimer expressed on the surface of Drosophila S2 cells (murine, UniProt P04228 24-256; P01921 28-265).
T1 construct: whole, on cells; Expressed without peptide on Drosophila S2 cells, alone or with accessory molecules; also called H2-A^d; recombinant MHC class II
T1 sequence (MHC II alpha, looked up): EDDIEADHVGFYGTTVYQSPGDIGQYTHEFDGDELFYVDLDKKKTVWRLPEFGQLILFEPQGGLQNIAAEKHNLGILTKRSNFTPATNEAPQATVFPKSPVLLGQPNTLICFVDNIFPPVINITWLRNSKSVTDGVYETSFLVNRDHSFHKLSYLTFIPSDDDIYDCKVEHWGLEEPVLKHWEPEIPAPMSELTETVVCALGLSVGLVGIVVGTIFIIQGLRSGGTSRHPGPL
T1 sequence (MHC II beta, looked up): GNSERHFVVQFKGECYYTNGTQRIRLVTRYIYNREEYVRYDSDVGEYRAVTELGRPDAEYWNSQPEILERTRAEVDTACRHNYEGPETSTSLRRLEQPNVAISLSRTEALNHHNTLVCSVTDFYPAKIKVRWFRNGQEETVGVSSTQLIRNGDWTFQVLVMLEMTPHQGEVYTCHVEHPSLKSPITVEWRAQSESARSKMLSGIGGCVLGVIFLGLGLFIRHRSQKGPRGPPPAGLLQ
Kind of experiment: inferred by the filing from OVA-peptide-dose-dependent T cell proliferation with peptide-loaded Drosophila APC; no direct binding assay. As for the experimental part: Proliferation is assayed as described in Example 5. The proliferation is measured in counts per minute (cpm)×1000 as plotted on the Y-axis against increasing concentrations of OVA peptide in μM on the X-axis. […] Proliferative responses with recombinant MHC class II alone are shown in the line having closed circles. Those with MHC class II combined with either costimulatory molecules B7.1 or B7.2 are shown respectively with lines having open and closed squares.
The effect of peptide presentation in the presence of MHC class II with and without accessory molecules, B7.1, B7.2 or B7.2 plus ICAM-1, was first assessed in a proliferation assay performed as described by Webb et al., Cell, 63:1249 (1990). Briefly, 5×10⁴ CD4⁺ T cells were cultured in microtiter wells with 5×10⁴ Drosophila cells in 300 μl of culture medium. Eighteen hours prior to harvesting, 100 μl of supernatant were removed for cytokine analysis and 1 μCi of ³H-thymidine was added to each well. At the times indicated (3, 4 or 5 days), the wells were individually harvested onto glass fiber filters and counted in a liquid scintillation counter.

The values below come from patent US20050054090A1 (Scripps Research, published 2005).

B1: ovalbumin323-339 (OVA) peptide (peptide)
peptide: ISQAVHAAHAEINEAGR
notes: Chemically synthesized by T-BOC chemistry and added to the cultures; also called ovalbumin peptide 323-339
For B1, the binding result was “binds”.
